Data reported in patent publication US20240076392A1, “ANTI-CD123 BINDING MOLECULES AND USES THEREOF” (IGM Biosciences, Inc., priority 2021, published 2024).
Changes are numbered by the printed parent chain.

T1: recombinant human CD123 protein (CD123)-His (Homo sapiens, UniProt P26951)
T1 construct: purchased Acrobio (Acro Biosystems) ILA-H52H6
T1 sequence (P26951 19-378): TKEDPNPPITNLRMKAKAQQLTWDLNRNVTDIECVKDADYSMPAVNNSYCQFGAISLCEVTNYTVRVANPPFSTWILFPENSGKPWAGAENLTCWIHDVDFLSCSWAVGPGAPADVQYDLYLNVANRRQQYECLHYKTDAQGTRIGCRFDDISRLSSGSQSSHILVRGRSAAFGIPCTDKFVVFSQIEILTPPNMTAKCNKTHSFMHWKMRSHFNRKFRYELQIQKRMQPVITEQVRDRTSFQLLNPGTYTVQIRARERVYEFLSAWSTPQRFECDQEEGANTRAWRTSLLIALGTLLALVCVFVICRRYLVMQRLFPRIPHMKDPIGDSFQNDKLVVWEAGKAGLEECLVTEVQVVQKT

T2: human CD123 on CHO cells (Homo sapiens, UniProt P26951)
T2 construct: expressed in transfected cells; host or cells: CHO cells
T2 sequence (P26951 19-378): T1 sequence (P26951 19-378)

B1: h32716-3-1 IgG: humanized 32716 anti-CD123 IgG, VH SEQ ID NO: 78, VL SEQ ID NO: 79 (antibody, V domains shown)
VH: QVQLVQSGAEVKKPGSSVKVSCKASGYIFTNYGMNWVKQAPGQGFKWMGWINTYTGESTYSADFKGRFTFTLDESTSTAYMELSSLRSEDTAVYYCARSGGYDPMDYWGQGTLVTVSS
VL: DIVMTQSPDSLAVSLGERATINCRASESVDNYGNTFMHWYQQKPGQPPKLLIYRASNLESGVPDRFSGSGSGTDFTLTISSLQAEDVAVYYCQQSNEDPPTFGQGTRLEIK
B2: 32716 IgG: parental (mouse) anti-CD123 antibody 32716 VH/VL (SEQ ID NO: 74/75) cloned into human IgG format (antibody, V domains shown)
VH: QIQLVQSGPELKKPGETVKISCKASGYIFTNYGMNWVKQAPGKSFKWMGWINTYTGESTYSADFKGRFAFSLETSASTAYLHINDLKNEDTATYFCARSGGYDPMDYWGQGTSVTVSS
VL: DIVLTQSPASLAVSLGQRATISCRASESVDNYGNTFMHWYQQKPGQPPKLLIYRASNLESGIPARFSGSGSRTDFTLTINPVEADDVATYYCQQSNEDPPTFGAGTKLELK
modifications: human IgG constant regions
B3: h32716-4-2 IgG: humanized 32716 anti-CD123 IgG, VH SEQ ID NO: 80, VL SEQ ID NO: 83 (antibody, V domains shown)
VH: QVQLVQSGPELKKPGASVKVSCKASGYIFTNYGMNWVRQAPGQGLEWMGWINTYTGESTYSADFKGRFVFSLDTSVSTAYLQISSLKAEDTAVYYCARSGGYDPMDYWGQGTLVTVSS
VL: DIQMTQSPSSLSASVGDRVTITCRASESVDNYGNTFMHWYQQKPGKAPKLLIYRASNLESGVPSRFSGSGSGTDFTFTISSLQPEDIATYYCQQSNEDPPTFGQGTKVEIK
B4: h32716-5-2 IgG: humanized 32716 anti-CD123 IgG, VH SEQ ID NO: 81, VL SEQ ID NO: 83 (antibody, V domains shown)
VH: B3 VH with R38K
VL: B3 VL
B5: h32716-6-2 IgG: humanized 32716 anti-CD123 IgG, VH SEQ ID NO: 82, VL SEQ ID NO: 83 (antibody, V domains shown)
VH: B3 VH with R38K, L45F, E46K
VL: B3 VL
B6: h32716-1-1 IgG: humanized 32716 anti-CD123 IgG, VH SEQ ID NO: 76, VL SEQ ID NO: 79 (antibody, V domains shown)
VH: B1 VH with K38R, F45L, K46E, F68V, F70I, L72A
VL: B1 VL
B7: h32716-2-1 IgG: humanized 32716 anti-CD123 IgG, VH SEQ ID NO: 77, VL SEQ ID NO: 79 (antibody, V domains shown)
VH: B1 VH with F45L, K46E
VL: B1 VL

What follows are molecules tested against T1, recombinant human CD123 protein (CD123)-His (assay: Biolayer interferometry (Octet) affinity measurement of IgG antibodies). Conditions: IgG format.
Assay type: binding
Procedure: The binding affinities of parental 32716 IgG and humanized variants with recombinant human CD123 protein (CD123)-His Acrobio #ILA-H52H6) were determined by BLI on an Octet-384 (Sartorius/Fortebio, NY, USA) using Anti-penta His biosensors (Sartorius). PBST (1×PBS+1% BSA+0.05% Tween-20) buffer was used as Antibody/CD123 dilution and sensor hydration buffer. The experiment followed a five-step sequential assay at 24° C. First, biosensors were hydrated for 10 minutes. Samples and buffer were applied in 384-well plate. After initial baseline for 60 s, sensors were loaded with 7 nM hu IL-3R alpha (CD123)-His Acrobio #ILA-H52H6. The biosensors were dipped into PBST for 20 s to reach baseline, then incubated for 420 s with 2-fold serial diluted anti-CD123 antibodies starting at 10 nM for association, followed by 900 s in PBST for dissociation. Results were analyzed by ForteBio Data Analysis software 9.0 using 1:1 global fit model.

affinity compared to the original murine IgG antibody | Molecule
slightly better affinity | B1

What follows are molecules tested against T2, human CD123 on CHO cells (assay: Flow cytometry binding of IgG antibodies to CD123 expressing CHO cells). Conditions: 4-parameter logistic model.
Procedure: To assess the ability of IgG antibodies to bind CD123 on CHO cells expressing the human CD123, a binding assay was performed. CHO cells expressing human CD123 were detached from flask using trypsin. Cells (1×105) were pipetted into wells in a round bottom 96 well plate, washed with FACS Stain Buffer (BD Pharmigen Catalog #554656) and pre-incubated with Fc Block (BD, #564220) for 10 minutes at room temperature followed by incubation at 4° C. with serial dilutions of 32716 or h32716 IgG antibodies for 30 minutes. Cells were washed twice and stained with a mouse anti human kappa antibody conjugated with Alexa647 (Southern Biotech, clone SB81a). Cells were analyzed by flow cytometry. Mean fluorescence intensity (MFI) values were analyzed with GraphPad Prism using a 4-parameter logistic model. All humanized IgG antibodies of 32716 anti-CD123 bound with similar affinities and intensities.

HillSlope | Molecule
2.2 | B2
2.4 | B3
2.2 | B4
1.9 | B5
1.9 | B1
2.0 | B6
1.7 | B7

Same assay, conditions: flow cytometry, 4-parameter logistic model

Max binding intensity (MFI) | Molecule
910000 MFI | B2
980000 MFI | B3
1100000 MFI | B4
1000000 MFI | B5
940000 MFI | B1
950000 MFI | B6
930000 MFI | B7
